Experimental data taken from patent US20260042850A1.

Molecular target: Insulin
Assay: polyreactivity ELISA on insulin (and dsDNA)

Sequence of Insulin (P01308 25-54, chain 1 of 2): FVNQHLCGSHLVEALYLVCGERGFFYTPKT
Sequence of Insulin (P01308 90-110, chain 2 of 2): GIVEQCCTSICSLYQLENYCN

reactivity score | Substance
> 15 | Briakinumab analogue (antibody)
> 15 | Bococizumab analogue (antibody)
